The results in this text go back to patent publication US20240026017A1 (Kyowa Kirin, published 2024).

This assay addresses T1, human CC chemokine receptor 1 (human CCR1) (human, UniProt P32246 1-355).
T1 construct: endogenous on THP-1 cells in the migration assays; also called hCCR1; CHO-S-hCCR1 (expressing cells)
T1 sequence: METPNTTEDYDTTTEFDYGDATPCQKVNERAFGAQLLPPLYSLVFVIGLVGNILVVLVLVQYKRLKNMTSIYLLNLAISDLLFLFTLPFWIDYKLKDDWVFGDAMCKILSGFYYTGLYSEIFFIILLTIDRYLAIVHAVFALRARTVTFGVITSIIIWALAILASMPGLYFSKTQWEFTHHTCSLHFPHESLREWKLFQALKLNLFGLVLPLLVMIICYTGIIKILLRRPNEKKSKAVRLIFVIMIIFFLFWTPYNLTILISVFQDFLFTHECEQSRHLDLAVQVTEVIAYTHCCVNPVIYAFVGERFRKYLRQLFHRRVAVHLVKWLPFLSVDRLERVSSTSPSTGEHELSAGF
The experiment in a line: flow cytometry on CHO-S-hCCR1 cells; bound = fluorescence 10 times or more that of isotype control chDNP1. As for the experimental part: The antigen affinity of the chKM5908′ antibody, which is a VL-substituted chimeric antibody, was measured by flow cytometry using the CHO-S-hCCR1 cells produced in Example 2. The cells were collected by centrifugation, the supernatant was removed, and the cells were suspended in PBS (Staining Medium, hereinafter, abbreviated as SM) containing 2% fetal bovine serum (FBS), 0.05% NaN₃, and 1 mM EDTA. Next, the cells were seeded in a 96-well plate so that the number of cells is 1×10⁵ per well, and the chKM5908′ antibody was added at each final concentration of 10,000, 2,000, 400, 80, 16, and 3.2 ng/mL, and the reaction was performed at 4° C. for 60 minutes. After washing the cells with SM, Goat F (ab′)₂ Anti-Human IgG PE (γ chain specific) (Southern Biotech) diluted 500-fold with SM was added and reacted at 4° C. for 60 minutes. After washing the cells with SM, the cells were resuspended in 50 μL of SM, and the fluorescence intensity was measured by the flow cytometry (FACS Canto II, BD Biosciences).
1996 June; 33 (9):759-68, hereinafter, referred to as chDNP1)] were determined to be bound to the human CCR1.
Background: A flow cytometer gives signals particle by particle.

B1: chKM5908′ mut07 (antibody, V domains shown)
VH: QVQLKQSGPGLVQPSQSLSITCTVSGFSLNNYGVHWVRQPPGKGLEWLGVIWSAGTTVYNAAAISRLSISKDDSKSQVFFKMNSLQAGDTAIYYCAKDGSRYYTAMDYWGQGTSVTVSS
VL: DVVMTQTPLSLPVSLGDQASIFCRSSQSLVHRNGITFFHWYLQKPGQSPKLLIYKVSNRFSGVPDRFSGSGSGTDFTLKISRVAPDDLGVYFCSQGTHVPPTFGGGTKLEIK
As to B1, the binding result is “binds”.

B2: chKM5908′ mut17 (antibody, V domains shown)
VH: QVQLKQSGPGLVQPSQSLSITCTVSGFSLNNYGVHWVRQPPGKGLEWLGVTWSAGTTVYNAAFISRLSISKDDSKSQVFFKMNSLQAGDTAIYYCAKDGSRYYTAMDYWGQGTSVTVSS
VL: DVVMTQTPLSLPVSLGDQASIFCRSSQSLVHRNGITFAHWYLQKPGQSPKLLIYKVSNRFSGVPDRFSGSGSGTDFTLKISRVAPDDLGVYFCSQGTHVPPTFGGGTKLEIK
For the molecule B2, the binding result was “binds”.

B3: chKM5908′ mut19 (antibody, V domains shown)
VH: QVQLKQSGPGLVQPSQSLSITCTVSGFSLNNYGVHWVRQPPGKGLEWLGVTWSAGTTAYNAAFASRLSISKDDSKSQVFFKMNSLQAGDTAIYYCAKDGSRYYTAMDYWGQGTSVTVSS
VL: DVVMTQTPLSLPVSLGDQASIFCRSSQSLVHRNGITFAHWYLQKPGQSPKLLIYKVSNRFSGVPDRFSGSGSGTDFTLKISRVAPDDLGVYFCSQGTHVPPTFGGGTKLEIK
Regarding B3, the binding result is reported as “binds”.

B4: chKM5908′ mut10 (antibody, V domains shown)
VH: QVQLKQSGPGLVQPSQSLSITCTVSGFSLNNYGVHWVRQPPGKGLEWLGVIWSAGTTVYNAAFISRLSISKDDSKSQVFFKMNSLQAGDTAIYYCAKDGSRYYAAMDYWGQGTSVTVSS
VL: DVVMTQTPLSLPVSLGDQASIFCRSSQSLVHRNGITFFHWYLQKPGQSPKLLIYKVSNRFSGVPDRFSGSGSGTDFTLKISRVAPDDLGVYFCSQGTHVPPTFGGGTKLEIK
As for B4, the binding result is on record as “binds”.

B5: chKM5908′ mut12 (antibody, V domains shown)
VH: QVQLKQSGPGLVQPSQSLSITCTVSGFSLNNYGVHWVRQPPGKGLEWLGVTWSAGTTVYNAAFASRLSISKDDSKSQVFFKMNSLQAGDTAIYYCAKDGSRAYAAMDYWGQGTSVTVSS
VL: DVVMTQTPLSLPVSLGDQASIFCRSSQSLVHRNGITFFHWYLQKPGQSPKLLIYKVSNRFSGVPDRFSGSGSGTDFTLKISRVAPDDLGVYFCSQGTHVPPTFGGGTKLEIK
Consider B5, for which the binding result is on record as “binds”.

B6: chKM5908′ mut25 (antibody, V domains shown)
VH: QVQLKQSGPGLVQPSQSLSITCTVSGFSLNNYGVHWVRQPPGKGLEWLGVTWSAGTTVYNAAFISRLSISKDDSKSQVFFKMNSLQAGDTAIYYCAKDGSRYYTAMDYWGQGTSVTVSS
VL: DVVMTQTPLSLPVSLGDQASIFCRSSQSLVHRNGITFFHWYLQKPGQSPKLLIYKVSNKFSGVPDRFSGSGSGTDFTLKISRVAPDDLGVYFCSQGTHVPPTFGGGTKLEIK
With B6, the binding result is “binds”.

B7: chKM5908′ mut22 (antibody, V domains shown)
VH: QVQLKQSGPGLVQPSQSLSITCTVSGFSLNNYGVHWVRQPPGKGLEWLGVIWSAGTTVYNAAAISRLSISKDDSKSQVFFKMNSLQAGDTAIYYCAKDGSRYYTAMDYWGQGTSVTVSS
VL: DVVMTQTPLSLPVSLGDQASIFCRSSQSLVHRNGITFFHWYLQKPGQSPKLLIYKISNRFSGVPDRFSGSGSGTDFTLKISRVAPDDLGVYFCSQGTHVPPTFGGGTKLEIK
notes: also called mAb5-06; mAb 5-06
Turning to B7, the binding result is recorded as “binds”.

B8: chKM5908′ mut18 (antibody, V domains shown)
VH: QVQLKQSGPGLVQPSQSLSITCTVSGFSLNNYGVHWVRQPPGKGLEWLGVIWSAGTTVYNAAAISRLSISKDDSKSQVFFKMNSLQAGDTAIYYCAKDGSRYYTAMDYWGQGTSVTVSS
VL: DVVMTQTPLSLPVSLGDQASIFCRSSQSLVHRNGITFAHWYLQKPGQSPKLLIYKVSNRFSGVPDRFSGSGSGTDFTLKISRVAPDDLGVYFCSQGTHVPPTFGGGTKLEIK
In the case of B8, the binding result is given as “binds”.

B9: chKM5908′ mut15 (antibody, V domains shown)
VH: QVQLKQSGPGLVQPSQSLSITCTVSGFSLNNYGVHWVRQPPGKGLEWLGVTWSAGTTVYNAAFISRLSISKDDSKSQVFFKMNSLQAGDTAIYYCAKDGSRAYAAMDYWGQGTSVTVSS
VL: DVVMTQTPLSLPVSLGDQASIFCRSSQSLVHRNGITFFHWYLQKPGQSPKLLIYKVSNRFSGVPDRFSGSGSGTDFTLKISRVAPDDLGVYFCSQGTHVPPTFGGGTKLEIK
For B9, the binding result is given as “binds”.

B10: chKM5908′ mut13 (antibody, V domains shown)
VH: QVQLKQSGPGLVQPSQSLSITCTVSGFSLNNYGVHWVRQPPGKGLEWLGVTWSAGTTVYNAAFASRLSISKDDSKSQVFFKMNSLQAGDTAIYYCAKDGSRYYAAMDYWGQGTSVTVSS
VL: DVVMTQTPLSLPVSLGDQASIFCRSSQSLVHRNGITFFHWYLQKPGQSPKLLIYKVSNRFSGVPDRFSGSGSGTDFTLKISRVAPDDLGVYFCSQGTHVPPTFGGGTKLEIK
As for B10, the binding result is given as “binds”.

B11: chKM5908′ mut23 (antibody, V domains shown)
VH: QVQLKQSGPGLVQPSQSLSITCTVSGFSLNNYGVHWVRQPPGKGLEWLGVTWSAGTTAYNAAFASRLSISKDDSKSQVFFKMNSLQAGDTAIYYCAKDGSRYYTAMDYWGQGTSVTVSS
VL: DVVMTQTPLSLPVSLGDQASIFCRSSQSLVHRNGITFFHWYLQKPGQSPKLLIYKISNRFSGVPDRFSGSGSGTDFTLKISRVAPDDLGVYFCSQGTHVPPTFGGGTKLEIK
Consider B11, for which the binding result is on record as “binds”.

B12: chKM5908′ mut20 (antibody, V domains shown)
VH: QVQLKQSGPGLVQPSQSLSITCTVSGFSLNNYGVHWVRQPPGKGLEWLGVTWSAGTTVYNAAFASRLSISKDDSKSQVFFKMNSLQAGDTAIYYCAKDGSRAYAAMDYWGQGTSVTVSS
VL: DVVMTQTPLSLPVSLGDQASIFCRSSQSLVHRNGITFAHWYLQKPGQSPKLLIYKVSNRFSGVPDRFSGSGSGTDFTLKISRVAPDDLGVYFCSQGTHVPPTFGGGTKLEIK
In the case of B12, the binding result is on record as “binds”.

B13: chKM5908′ mut11 (antibody, V domains shown)
VH: QVQLKQSGPGLVQPSQSLSITCTVSGFSLNNYGVHWVRQPPGKGLEWLGVTWSAGTTAYNAAFASRLSISKDDSKSQVFFKMNSLQAGDTAIYYCAKDGSRYYTAMDYWGQGTSVTVSS
VL: DVVMTQTPLSLPVSLGDQASIFCRSSQSLVHRNGITFFHWYLQKPGQSPKLLIYKVSNRFSGVPDRFSGSGSGTDFTLKISRVAPDDLGVYFCSQGTHVPPTFGGGTKLEIK
On to B13, for which the binding result was “binds”.

B14: chKM5908′ mut08 (antibody, V domains shown)
VH: QVQLKQSGPGLVQPSQSLSITCTVSGFSLNNYGVHWVRQPPGKGLEWLGVIWSAGTTVYNAAFASRLSISKDDSKSQVFFKMNSLQAGDTAIYYCAKDGSRYYTAMDYWGQGTSVTVSS
VL: DVVMTQTPLSLPVSLGDQASIFCRSSQSLVHRNGITFFHWYLQKPGQSPKLLIYKVSNRFSGVPDRFSGSGSGTDFTLKISRVAPDDLGVYFCSQGTHVPPTFGGGTKLEIK
B14: the binding result is listed as “binds”.

B15: chKM5908′ mut09 (antibody, V domains shown)
VH: QVQLKQSGPGLVQPSQSLSITCTVSGFSLNNYGVHWVRQPPGKGLEWLGVIWSAGTTVYNAAFISRLSISKDDSKSQVFFKMNSLQAGDTAIYYCAKDGSRAYTAMDYWGQGTSVTVSS
VL: DVVMTQTPLSLPVSLGDQASIFCRSSQSLVHRNGITFFHWYLQKPGQSPKLLIYKVSNRFSGVPDRFSGSGSGTDFTLKISRVAPDDLGVYFCSQGTHVPPTFGGGTKLEIK
On to B15, for which the binding result was “binds”.

B16: chKM5908′ mut14 (antibody, V domains shown)
VH: QVQLKQSGPGLVQPSQSLSITCTVSGFSLNNYGVHWVRQPPGKGLEWLGVTWSAGTTVYNAAFASRLSISKDDSKSQVFFKMNSLQAGDTAIYYCAKDGSRYYTAMDYWGQGTSVTVSS
VL: DVVMTQTPLSLPVSLGDQASIFCRSSQSLVHRNGITFFHWYLQKPGQSPKLLIYKVSNRFSGVPDRFSGSGSGTDFTLKISRVAPDDLGVYFCSQGTHVPPTFGGGTKLEIK
With B16, the binding result is “binds”.

B17: chKM5908′ mut21 (antibody, V domains shown)
VH: QVQLKQSGPGLVQPSQSLSITCTVSGFSLNNYGVHWVRQPPGKGLEWLGVTWSAGTTVYNAAFISRLSISKDDSKSQVFFKMNSLQAGDTAIYYCAKDGSRYYTAMDYWGQGTSVTVSS
VL: DVVMTQTPLSLPVSLGDQASIFCRSSQSLVHRNGITFFHWYLQKPGQSPKLLIYKISNRFSGVPDRFSGSGSGTDFTLKISRVAPDDLGVYFCSQGTHVPPTFGGGTKLEIK
Turning to B17, the binding result is recorded as “binds”.

B18: chKM5908′ mut24 (antibody, V domains shown)
VH: QVQLKQSGPGLVQPSQSLSITCTVSGFSLNNYGVHWVRQPPGKGLEWLGVTWSAGTTVYNAAFASRLSISKDDSKSQVFFKMNSLQAGDTAIYYCAKDGSRAYAAMDYWGQGTSVTVSS
VL: DVVMTQTPLSLPVSLGDQASIFCRSSQSLVHRNGITFFHWYLQKPGQSPKLLIYKISNRFSGVPDRFSGSGSGTDFTLKISRVAPDDLGVYFCSQGTHVPPTFGGGTKLEIK
Turning to B18, the binding result was “binds”.
